In data set [1] the test system is HeLa Kyoto. Put plainly: melting temperature (median over replicates), in situ; higher = more thermally stable.
The test system of data set [2] is HeLa Kyoto. Put plainly: solubility in G1/S (NP-40 vs SDS abundance) (log2 ratio); higher = more soluble. Conditions: cell cycle stage: G1/S.
Data set [3] relates to HeLa Kyoto. As to the kind of experiment: solubility change mitosis vs G1/S (difference of NP-40 vs SDS log2 ratios) (log2 ratio difference); higher = more soluble in mitosis.
The test system of data set [4] is HeLa Kyoto. Put plainly: thermal stability score vs G1/S (z-score of summed log2 fold changes over temperatures); higher = more thermally stable than in G1/S.
[5] abbreviates: cell cycle stage: early G1 (4.5 h after nocodazole release).
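Throughout, for melting temperature (median over replicates), in situ: HeLa Kyoto cells synchronized by double thymidine or nocodazole block, proteins quantified by TMT10plex mass spectrometry, three independent biological replicates.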
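Throughout, for solubility change mitosis vs G1/S (difference of NP-40 vs SDS log2 ratios): synchronized HeLa Kyoto cells (double thymidine block for G1/S, nocodazole release for mitosis), protein amounts in NP-40 versus SDS lysates quantified by mass spectrometry, three biological replicates.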
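Throughout, for solubility in G1/S (NP-40 vs SDS abundance): HeLa Kyoto cells arrested at G1/S by double thymidine block, proteins quantified by TMT10plex mass spectrometry in mild NP-40 versus SDS extracts, three biological replicates.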
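Throughout, for thermal stability score vs G1/S (z-score of summed log2 fold changes over temperatures): synchronized HeLa Kyoto cells, proteins quantified by TMT10plex mass spectrometry, three biological replicates, mitosis taken 0.5 h after nocodazole release, G1/S directly after double thymidine block.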

With “MKFLLDILLLLPLLIVCSLESFVKLFIPKRRKSVTGEIVLITGAGHGIGRLTAYEFAKLKSKLVLWDINKHGLEETAAKCKGLGAKVHTFVVDCSNREDIYSSAKKVKAEIGDVSILVNNAGVVYTSDLFATQDPQIEKTFEVNVLAHFWTTKAFLPAMTKNNHGHIVTVASAAGHVSVPFLLAYCSSKFAAVGFHKTLTDELAALQITGVKTTCLCPNFVNTGFIKNPSTSLGPTLEPEEVVNRLMHGILTEQKMIFIPSSIAFLTTLERILPERFLAVLKRKISVKFDAVIGYKMKAQ [HSD17B11]”, the melting temperature with HeLa Kyoto [1] (cell cycle stage: G1/S) is 55.1 °C; in the data set on HeLa Kyoto [1] (cell cycle stage: mitosis), 54.8 °C. For the same substance, the “solubility in G1/S (log2)” value in the data set on HeLa Kyoto [2] is -0.334. In addition, the “solubility change mitosis (log2)” value with HeLa Kyoto [3] is -0.138. Moreover, the values for the thermal stability score with HeLa Kyoto [4] (setting [5]) and in the data set on HeLa Kyoto [4] (cell cycle stage: mitosis) were 0.073 and -3.33, respectively.

With “MKGTRAIGSVPERSPAGVDLSLTGLPPPVSRRPGSAATTKPIVRSVSVVTGSEQKRKVLEATGPGGSQAINNLRRSNSTTQVSQPRSGSPRPTEPTDFLMLFEGSPSGKKRPASLSTAPSEKGATWNVLDDQPRGFTLPSNARSSSALDSPAGPRRKECTVALAPNFTANNRSNKGAVGNCVTTMVHNRYTPSERAPPLKSSNQTAPSLNNIIKAATCEGSESSGFGKLPKNVSSATHSARNNTGGSTGLPRRKEVTEEEAERFIHQVNQATVTIQRWYRHQVQRRGAGAARLEHLLQAKREEQRQRSGEGTLLDLHQQKEAARRKAREEKARQARRAAIQELQQKRALRAQKASTAERGPPENPRETRVPGMRQPAQELSPTPGGTAHQALKANNTGGGLPAAGPGDRCLPTSDSSPEPQQPPEDRTQDVLAQDAAGDNLEMMAPSRGSAKSRGPLEELLHTLQLLEKEPDVLPRPRTHHRGRYAWASEVTTEDDASSLTADNLEKFGKLSAFPEPPEDGTLLSEAKLQSIMSFLDEMEKSGQDQLDSQQEGWVPEAGPGPLELGSEVSTSVMRLKLEVEEKKQAMLLLQRALAQQRDLTARRVKETEKALSRQLQRQREHYEATIQRHLAFIDQLIEDKKVLSEKCEAVVAELKQEDQRCTERVAQAQAQHELEIKKLKELMSATEKARREKWISEKTKKIKEVTVRGLEPEIQKLIARHKQEVRRLKSLHEAELLQSDERASQRCLRQAEELREQLEREKEALGQQERERARQRFQQHLEQEQWALQQQRQRLYSEVAEERERLGQQAARQRAELEELRQQLEESSSALTRALRAEFEKGREEQERRHQMELNTLKQQLELERQAWEAGRTRKEEAWLLNREQELREEIRKGRDKEIELVIHRLEADMALAKEESEKAAESRIKRLRDKYEAELSELEQSERKLQERCSELKGQLGEAEGENLRLQGLVRQKERALEDAQAVNEQLSSERSNLAQVIRQEFEDRLAASEEETRQAKAELATLQARQQLELEEVHRRVKTALARKEEAVSSLRTQHEAAVKRADHLEELLEQHRRPTPSTK [CEP131]”, the melting temperature in the data set with HeLa Kyoto [1] (cell cycle stage: G1/S) stood at 50.5 °C; in the data set with HeLa Kyoto [1] (cell cycle stage: mitosis), 49.2 °C. In addition, the “solubility in G1/S (log2)” value with HeLa Kyoto [2] amounted to 0.0853. The “solubility change mitosis (log2)” value with HeLa Kyoto [3] came to 0.357. For the same substance, the thermal stability score is -0.343 with HeLa Kyoto [4] (setting [5]) and 1.44 in the data set with HeLa Kyoto [4] (cell cycle stage: mitosis).

Consider MKI67, for which the melting temperature in the data set with HeLa Kyoto [1] (cell cycle stage: G1/S) worked out at 49.4 °C; in the data set on HeLa Kyoto [1] (cell cycle stage: mitosis), 52 °C. For the same substance, in the data set with HeLa Kyoto [2], the “solubility in G1/S (log2)” value was -1.82. The “solubility change mitosis (log2)” value in the data set on HeLa Kyoto [3] amounted to 1.29. Besides, the thermal stability score in the data set with HeLa Kyoto [4] (setting [5]) is 5.66; with HeLa Kyoto [4] (cell cycle stage: mitosis), 0.979.

For the substance “MKKASRSVGSVPKVSAISKTQTAEKIKPENSSSASTGGKLVKPGTAASLSKTKSSDDLLAGMAGGVTVTNGVKGKKSTCPSAAPSASAPAMTTVENKSKISTGTASSTKRSTSTGNKESSSTRERLRERTRLNQSKKLPSAGQGANDMALAKRSRSRTATECDVRMSKSKSDNQISDRAALEAKVKDLLTLAKTKDVEILHLRNELRDMRAQLGINEDHSEGDEKSEKETIMAHQPTDVESTLLQLQEQNTAIREELNQLKNENRMLKDRLNALGFSLEQRLDNSEKLFGYQSLSPEITPGNQSDGGGTLTSSVEGSAPGSVEDLLSQDENTLMDHQHSNSMDNLDSECSEVYQPLTSSDDALDAPSSSESEGIPSIERSRKGSSGNASEVSVACLTERIHQMEENQHSTSEELQATLQELADLQQITQELNSENERLGEEKVILMESLCQQSDKLEHFSRQIEYFRSLLDEHHISYVIDEDVKSGRYMELEQRYMDLAENARFEREQLLGVQQHLSNTLKMAEQDNKEAQEMIGALKERSHHMERIIESEQKGKAALAATLEEYKATVASDQIEMNRLKAQLENEKQKVAELYSIHNSGDKSDIQDLLESVRLDKEKAETLASSLQEDLAHTRNDANRLQDAIAKVEDEYRAFQEEAKKQIEDLNMTLEKLRSDLDEKETERSDMKETIFELEDEVEQHRAVKLHDNLIISDLENTVKKLQDQKHDMEREIKTLHRRLREESAEWRQFQADLQTAVVIANDIKSEAQEEIGDLKRRLHEAQEKNEKLTKELEEIKSRKQEEERGRVYNYMNAVERDLAALRQGMGLSRRSSTSSEPTPTVKTLIKSFDSASQVPNPAAAAIPRTPLSPSPMKTPPAAAVSPMQRHSISGPISTSKPLTALSDKRPNYGEIPVQEHLLRTSSASRPASLPRVPAMESAKTLSVSRRSSEEVKRDISAQEGASPASLMAMGTTSPQLSLSSSPTASVTPTTRSRIREERKDPLSALAREYGGSKRNALLKWCQKKTEGYQNIDITNFSSSWNDGLAFCALLHTYLPAHIPYQELNSQDKRRNFMLAFQAAESVGIKSTLDINEMVRTERPDWQNVMLYVTAIYKYFET [SPECC1L]”, the melting temperature stood at 50.8 °C in the data set on HeLa Kyoto [1] (cell cycle stage: G1/S) and 50.7 °C in the data set on HeLa Kyoto [1] (cell cycle stage: mitosis). Further, in the data set with HeLa Kyoto [2], the “solubility in G1/S (log2)” value is -0.183. The “solubility change mitosis (log2)” value with HeLa Kyoto [3] came out at 0.448. Moreover, the results for the thermal stability score in the data set on HeLa Kyoto [4] (setting [5]) and in the data set on HeLa Kyoto [4] (cell cycle stage: mitosis) were 0.147 and -0.333, respectively.

The record behind these values is the supplement of paper PMC5998384.
